Experimental findings from publication doi:10.1101/2020.12.29.424711 (bioRxiv, 2020) are described below.

Test [1] has as its target SARS-CoV-2 receptor binding domain (RBD), as crystallised (SARS-CoV-2, UniProt P0DTC2). Nature of the test: crystal structure.
Test [2] has as its target SARS-CoV-2 RBD, as used in Octet epitope binning and as SPR analyte (SARS-CoV-2, UniProt P0DTC2). Nature of the test: BLI. For orientation: BLI is a label-free optical method that tracks binding on a fibre tip over time.

B1: ION_360 Fab (Fab, V domains shown)
VH: EVQLVQSGGGLVKPGGSLRLSCAASGITVSSNYMSWVRQAPGKGLEWVSVIYSGGSTYYADSVKGRFTISRDNSKNTLYLQMNSLRAEDTAVYYCARGEGGSIVGVTSDYWGQGTLVTVSS
VL: DIQMTQSPSSLSASVGDRVTITCRASQSISRYLNWYQQKPGKAPKLLIYAASSLQSGVPSRFSGSGSETEFTLTISSLHPDDFATYYCQQSYSTLPYTFGQGTKVEIK
Turning to B1, the binding result in test [1] was “binds”.

B2: ION_300 Fab (Fab, V domains shown)
VH: QVQLVQSGAEVKKPGESLKISCKGSGYSFTSYWIGWVRQMPGKGLEWMGIIYPGDSDTRYSPSFQGQVTISADKSISTAYLQWSSLKASDTAMYYCARHPSPYYYGSGSYSGGFDYWGQGTLVTVSS
VL: DIVMTQSPGTLSLSPGERATLSCRASQSVSSSYLAWYQQKPGQAPRLLIYGASTRATGIPARFSGSGSGTEFTLTISSLQSEDFAVYYCQQYDNWPLMHTFGQGTKLEIK
For the molecule B2, in test [1], the binding result is reported as “binds”.

B3: ION_300 IgG1 (antibody, V domains shown)
VH: B2 VH
VL: B2 VL
On to B3, for which the binding result in test [2] is reported as “binds”.
